Measured values reported in US20190025332A1 (Novo Nordisk, published 2019).
Blank lines part the entries; values can stand above or below the binder they belong to.

Biological target: T1, wild type human MIC-1 (human, UniProt Q99988 197-308)
T1 construct: also called wtMIC-1; hMIC-1
T1 sequence: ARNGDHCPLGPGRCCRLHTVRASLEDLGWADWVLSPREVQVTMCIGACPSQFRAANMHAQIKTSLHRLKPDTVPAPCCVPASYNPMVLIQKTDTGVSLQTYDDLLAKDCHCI
Assay: SPR; GFRAL fragment as analyte over immobilised wtMIC-1; relative to hGFRAL(ECR) set as 100%
Experimental: MIC-1 interactions with soluble GFRAL fragments were assessed by SPR-based binding assay. A Biacore® 4000 (GE Healthcare, Piscataway, N.J., USA) instrument was used for SPR-based binding assay. The assays were performed at 25° C. at flow rates of 30 μL/minute in 1× HBS-P running buffer (BR-1006-71, GE Healthcare, Piscataway, N.J., USA). Purified GFRAL fragments at various concentrations were run as flow-through analyte and wtMIC-1 was immobilized as ligand. Please see FIG. 6 and Table 5.

% of Binding: 21%
B1: hGFRAL_C2_Fab_HPC4 (receptor)
chain: CLEVAEACVGDVVCNAQLASYLKACSANGNPCDLKQCQAAIRFFYQNIPFNIAQMLAFCDCAQSDIPCQQSKEALHSKTCAVNMVPPPTGGGGSGGGGSDVVMTQTPLSLPVSLGDQASISCRSSQSLLHSNGNTYLHWYLQKPGQSPKLLIYKVSNRFSGVPDRFSGSGSGTDFTLKISRVEAEDLGVYFCSQSTHVPWTFGGGTKLEIKRADAAPTVSIFPPSSEQLTSGGASVVCFLNNFYPKDINVKWKIDGSERQNGVLNSWTDQDSKDSTYSMSSTLTLTKDEYERHNSYTCEATHKTSTSPIVKSFNRNEC
heavy: EVQIQESGPSLVKPSQTLSLTCSVSGDSITSGYWNWIRKFPGHKIEYMGTISYSGDTYYNPSLKSRISITRDTSKNQYYLHLNSVTTEDTATYYCARYGSYVFDYWGQGTTLTVSSAKTTPPSVYPLAPGSAAQTNSMVTLGCLVKGYFPEPVTVTWNSGSLSSGVHTFPAVLQSDLYTLSSSVTVPSSTWPSETVTCNVAHPASSTKVDKKIVPRDCGGGGSEDQVDPRLIDGK
notes: C2 = amino acid 131-219 of UniProt Q6UXV0

% of Binding: 87%
B2: hGFRAL_C1C2_Fab_HPC4 (receptor)
chain: QTNNCTYLREQCLRDANGCKHAWRVMEDACNDSDPGDPCKMRNSSYCNLSIQYLVESNFQFKECLCTDDFYCTVNKLLGKKCINKSDNVKEDKFKWNLTTRSHHGFKGMWSCLEVAEACVGDVVCNAQLASYLKACSANGNPCDLKQCQAAIRFFYQNIPFNIAQMLAFCDCAQSDIPCQQSKEALHSKTCAVNMVPPPTGGGGSGGGGSDVVMTQTPLSLPVSLGDQASISCRSSQSLLHSNGNTYLHWYLQKPGQSPKLLIYKVSNRFSGVPDRFSGSGSGTDFTLKISRVEAEDLGVYFCSQSTHVPWTFGGGTKLEIKRADAAPTVSIFPPSSEQLTSGGASVVCFLNNFYPKDINVKWKIDGSERQNGVLNSWTDQDSKDSTYSMSSTLTLTKDEYERHNSYTCEATHKTSTSPIVKSFNRNEC
heavy: B1 heavy

% of Binding: 8%
B3: hGFRAL_C2C3_Fab_HPC4 (receptor)
chain: CLEVAEACVGDVVCNAQLASYLKACSANGNPCDLKQCQAAIRFFYQNIPFNIAQMLAFCDCAQSDIPCQQSKEALHSKTCAVNMVPPPTCLSVIRSCQNDELCRRHYRTFQSKCWQRVTRKCHEDENCISTLSKQDLTCSGSDDCKAAYIDILGTVLQVQCTCRTITQSEESLCKIFQHMLHRKSCFNYPTLSNVKGMALYTRKHANKITLTGFHSPFNGEGGGGSGGGGSDVVMTQTPLSLPVSLGDQASISCRSSQSLLHSNGNTYLHWYLQKPGQSPKLLIYKVSNRFSGVPDRFSGSGSGTDFTLKISRVEAEDLGVYFCSQSTHVPWTFGGGTKLEIKRADAAPTVSIFPPSSEQLTSGGASVVCFLNNFYPKDINVKWKIDGSERQNGVLNSWTDQDSKDSTYSMSSTLTLTKDEYERHNSYTCEATHKTSTSPIVKSFNRNEC
heavy: B1 heavy
